Test results reported in the supplement of paper PMC11908140.

B1: library; numbered along this chain (parent)
chain: MRKPRAAVGSGHRKQAASQEGRQKHAKNNSQAKPSACDGLARQPEEVVLQASVSSYHLFRDVAEVTAFRGSLLSWYDQEKRDLPWRRRAEDEMDLDRRAYAVWVSEVMLQQTQVATVINYYTGWMQKWPTLQDLASASLEEVNQLWAGLGYYSRGRRLQEGARKVVEELGGHMPRTAETLQQLLPGVGRYTAGAIASIAFGQATGVVDGNVARVLCRVRAIGADPSSTLVSQQLWGLAQQLVDPARPGDFNQAAMELGATVCTPQRPLCSQCPVESLCRARQRVEQEQLLASGSLSGSPDVEECAPNTGQCHLCLPPSEPWDQTLGVVNFPRKASRKPPREESSATCVLEQPGALGAQILLVQRPNSGLLAGLWEFPSVTWEPSEQLQRKALLQELQRWAGPLPATHLRHLGEVVHTFSHIKLTYQVYGLALEGQTPVTTVPPGARWLTQEEFHTAAVSTAMKKVFRVYQGQQPGTCMGSKRSQVSSPCSRKKPRMGQQVLDNFFRSHISTDAHSLNSAAQ

Variants of: B1
Assay: 8OG:A repair function score (normalized; synonymous = 0, nonsense = -1) (normalized log-likelihood score); higher = more repair activity (WT-like)
Settings: with 8OG:A DNA repair reporter (GFP) in HEK-293 MUTYH KO cells
Procedure, shortened: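 Lentiviral MUTYH cDNA NNN codon-scan libraries were expressed in MUTYH knockout HEK-293 cells with 10 pg/ml doxycycline, and the cells received an 8OG:A GFP repair reporter together with mCherry. At 72 h, viable mCherry+ cells went into GFP+ (repair) or GFP− bins, three replicates per tile, before tile amplicons were sequenced. A repair function score was then built from per-tile Rosace fitness scores, anchored on the synonymous and nonsense distributions. Synonymous medians sat at 0 and nonsense at -1, and variants under 300 counts per million at the start were left out.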
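Also: cells sorted at 72 h after reporter transfection.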

Variant	8OG:A repair function score
L234Q	-0.724
L234G	-0.994
L234S	-0.827
L234K	-0.869
L234A	-0.833
L234E	-0.954
L234H	-0.751
L234Y	-0.976
L234T	-0.464
L234V	-0.29
L234N	-0.855
L234I	-0.183
L234R	-1.01
L234D	-1.03
L234C	-0.521
L234W	-0.79
L234P	-1.02
S231N	0.155
S231E	0.0501
S231K	0.154
S231M	0.155
S231Y	-0.226
S231L	-0.0707
S231I	-0.0202

Variant	8OG:A repair function score
S231V	-0.0155
S231H	-0.0123
S231F	-0.24
S231T	0.0918
S231P	-0.683
S231G	-0.125
S231Q	-0.132
S231D	-0.132
S231W	0.173
S231R	0.201
G236I	0.00703
G236C	0.116
G236Q	0.356
G236E	0.29
G236K	0.114
G236V	-0.0226
G236R	0.107
G236S	0.254
G236A	0.149
G236Y	-0.152
G236N	0.18
G236T	-0.0456
G236D	0.156
G236P	-0.455

Variant	8OG:A repair function score
G236H	-0.00754
G236L	-0.0738
G236F	0.0301
W235Q	-0.314
W235Y	-0.177
W235M	-0.389
W235T	-0.416
W235R	-0.496
W235C	-0.509
W235K	-0.51
W235V	-0.467
W235F	-0.292
W235G	-0.61
W235D	-0.452
W235H	-0.343
W235A	-0.284
W235E	-0.204
W235P	-1
W235S	-0.516
W235L	-0.406
W235N	-0.368
W235I	-0.342
Q240C	-1.01
Q240A	-0.971

Variant	8OG:A repair function score
L237A	-0.321
L237T	-0.184
L237G	-0.848
L237N	-0.583
L237R	-0.738
L237D	-0.692
L237F	-0.257
L237Q	-0.281
L237M	-0.32
L237W	-0.397
L237I	0.105
L237C	-0.474
L237Y	-0.0407
L237K	-0.816
L237E	-0.684
L237V	-0.463
L237H	-0.433
L237P	-0.931
L237S	-0.551
Q232I	-0.459
Q232N	-0.0697
Q232R	0.171
Q232F	-0.308
Q232M	-0.355

Variant	8OG:A repair function score
Q232P	-0.285
Q232E	0.105
Q232S	-0.0424
Q232D	-0.0919
Q232H	-0.21
Q232A	-0.179
Q232G	0.139
Q232C	-0.188
Q232Y	-0.106
Q232V	-0.243
Q232L	-0.326
Q232W	-0.433
Q232T	-0.105
Q232K	-0.0471
Q239R	-0.232
Q239G	-0.228
Q239E	-0.065
Q239W	-0.74
Q239F	-0.526
Q239S	-0.175
Q239K	-0.0216
Q239L	-0.403
Q239V	-0.529
Q239I	-0.589

Variant	8OG:A repair function score
Q239N	0.162
Q239M	-0.146
Q239T	-0.143
Q239P	-0.953
Q239Y	-0.309
Q239H	0.289
Q239A	-0.104
Q239D	0.103
Q239C	-0.184
Q233V	0.335
Q233G	-0.0523
Q233T	0.244
Q233F	0.305
Q233H	0.461
Q233W	-0.0138
Q233Y	0.0243
Q233C	-0.188
Q233M	0.177
Q233N	-0.032
Q233L	0.227
Q233I	0.198
Q233A	-0.259
Q233R	-0.19
Q233E	-0.306

Variant	8OG:A repair function score
Q233K	-0.089
Q233P	-0.428
Q233D	-0.318
Q233S	0.0726
A238T	-0.413
A238K	-0.887
A238I	-0.365
A238Y	-0.881
A238H	-0.805
A238R	-1.01
A238M	0.0352
A238Q	-0.254
A238N	-0.887
A238F	-0.858
A238E	-0.688
A238W	-0.956
A238G	-0.603
A238D	-0.714
A238V	0.0238
A238L	-0.816
A238S	-0.0308
A238P	-1.01
A238C	-0.249
